Test results from the RNAGym collection of RNA variant scans (doi:10.7554/elife.80360).

B1: Hairpin Ribozyme (parent)
chain: GUCCUCUUUCACGUGCGCGUGAAAGAGAGAAGUGAACCAGAGAAACACACGUUGUGGUAUAUUACCUGGUA

Variants of: B1
Test: self-cleavage, relative activity (ratio to wild type); higher = more cleavage; co-transcriptional

Variant	self-cleavage
A35U C46G	0.146
G21C A31C	0.0833
U7A U70A	0.766
C37U G51A	0.967
G19A U33A	0.0829
C6G A39G	0.197
C3G G29C	0.0773
G25A A47C	0.107
C65G C66A	0.142
A35C G68C	0.145
A35U A43C	0.0178
A44C A45C	0
C10A G27A	0.35
C37G A47G	0.15
C3A G17U	0.571
A35G C38G	0.129
G29A C37G	0.103
U9G A44U	0.162
U20G C65U	0.374
G40C A44U	0.151
U7C C16G	0.456
G40U U55A	0.104
A23G G42U	0.359
U60A U63C	0.151

Variant	self-cleavage
U60A U63A	0.164
U5A U52A	0.646
A23G C50A	0.218
C3G A71U	0.148
C3G C6U	0.295
G17U G56A	0.194
G13C G27A	0.314
G56C U67C	0.138
C6G G32U	0.116
G13A A61G	0.196
C4U C10G	0.264
C16U A59G	0.109
C16U A59C	0.17
A11G G68C	0.221
A61G A64G	0.141
U14G U60A	0.641
U60G A71C	1.01
U60G A71G	0.672
C3U G21A	0.483
G42A U70A	0.0455
G56A U58A	0.0823
A45U U60G	0.188
U67G G68U	0.192
C12U A31G	0.549

Variant	self-cleavage
G34C U53C	1.36
G42A C65U	0.103
G42A C65A	0.0752
U2A U8A	0.279
C37U A47G	0.167
G56U G57C	0.144
U2C G19C	0.128
C37G G42U	0.0921
A30G U67G	0.0921
G57U G68C	0.211
A22C G40A	0.242
G15C A23G	1.05
U58A A71G	0.768
U33C U53A	0.198
C16U C48G	0.108
U8C A61G	0.0942
A36C A44C	0.122
A39G G56C	0.117
U14A U33A	0.137
A11U G69U	0.26
C48G G56C	0.922
C38A A39G	0.136
A22U U53A	0.859
G57A C65A	0.222

Variant	self-cleavage
C4U U8A	0.2
G27A C65A	0.396
U2A G40A	0.0928
U20A U67G	0.256
A23G G57C	0.177
C37A G56C	0.174
C6U U9A	0.517
A11G G54U	0.56
U2A A61C	0.0595
G34U U53G	1.58
U7A G54A	0.535
G42A A49U	0.11
U20A C66U	0.487
U2G A64G	0.159
U14G G51A	0.989
U8G U60C	0.845
G25A A30U	0.234
G32A A45G	0.117
G1A A35G	0.16
U5C U62A	0.118
G19C G57U	0.275
A30G G34U	0.932
C10A U20G	0.663
A44G U52A	0.246

Variant	self-cleavage
C4A G19U	0.221
U8G G29U	0.112
C12U G17C	0.578
G51A G54C	0.36
C38G A71G	0.172
A39U A71G	0.221
C4G G13A	0.193
A22C A28G	0.807
G17U G68A	0.258
C12A A45U	0.132
A11U A35U	0.717
G15C U20C	0.997
A31U A44U	0.286
G29A A31C	0.129
U20A C50G	0.132
G21A U53G	0.699
A23U C37G	0.438
G15A C46U	0.147
A47U U62G	0.158
C10U A31G	0.812
G15U C38A	0.124
C10A A59U	0.234
A22C A71C	1.26
G34C G42C	0.907

Variant	self-cleavage
G34C C46U	0.109
C16U A47C	0.567
C12G G29U	0.234
U2G C10G	0.287
G56C U58C	0.246
A41C G69A	0.524
U7A C37U	0.403
U53G C66A	0.131
C3G U70C	0.235
G19U G51U	0.947
G1C U7G	0.258
G25C U60C	0.673
U53A A59G	0.177
U53A A59U	0.129
A24C U33C	0.16
G25U A30G	0.124
C6A A26U	0.364
G51A G56U	0.166
G15U A28G	1.16
G19C A23U	0.656
G15C C65G	0.369
G34C A71G	1.66
U20A	0.869
G1U G27A	0.148

Variant	self-cleavage
U33A A59U	0.177
G17U A64C	0.245
G17C G21A	0.618
U2G G25C	0.137
C37A C50A	0.124
A45C U58C	0.0787
U58A U62C	0.12
C18G G21U	0.651
U8G C48U	0.0825
G13A U33G	0.136
C3A G56U	0.162
A31G A64U	0.215
U55G C66A	0.201
U14A A61U	0.266
A39U C65U	0.201
C48A U70A	0.209
A30C A39G	0.1
C6G A61C	0.0806
U7A G32A	0.145
A11U U63G	0.175
U7A C10G	0.541
G1C C50A	0.147
G1C C50U	0.321
